Reference: patent publication US12077763B2, “RNA-based control of powdery mildew” (Greenlight Biosciences, Inc., priority 2021, dated 2024)

B1: GS3934 (nucleic acid)
sense: UCUUCUUCAGUGGUAUGUGCAAGAGAUUGACGUCUAGAUGAACGUGUUGAUGGUGCAGUUACUACAGCAGUAGCUUCAACCGAUUUUCGACUCACUUUUCGCUUGUUUGAAACAGACGAAACUAAAGAAUUUGUGGAACUAGAUUUAGGUUUACGAGUAGUGGACCGUCCCUUACUUGUAUAGACUCUCUUUUUAAGUGUAGAAUCAUUCAAUGGCUGUAAAAAUGAAACUAAAUCUCCACAAAUAGUAGUAGGUGCAUCUGCUGAUAAUGCUUCAGGUAAAUCUAAUCUAGAUCCAAUUUCUGAUGUACUAAGUGAUAUAUUUGAAGAGGUAAUAUUACUUUGUAUUUCAGGUGUCUUUGAGGUCAUCUUUGAUGAAAUUACCAUUAGUUUUU
antisense: AAAAACUAAUGGUAAUUUCAUCAAAGAUGACCUCAAAGACACCUGAAAUACAAAGUAAUAUUACCUCUUCAAAUAUAUCACUUAGUACAUCAGAAAUUGGAUCUAGAUUAGAUUUACCUGAAGCAUUAUCAGCAGAUGCACCUACUACUAUUUGUGGAGAUUUAGUUUCAUUUUUACAGCCAUUGAAUGAUUCUACACUUAAAAAGAGAGUCUAUACAAGUAAGGGACGGUCCACUACUCGUAAACCUAAAUCUAGUUCCACAAAUUCUUUAGUUUCGUCUGUUUCAAACAAGCGAAAAGUGAGUCGAAAAUCGGUUGAAGCUACUGCUGUAGUAACUGCACCAUCAACACGUUCAUCUAGACGUCAAUCUCUUGCACAUACCACUGAAGAAGA
B2: GS3930 (nucleic acid)
sense: CUAACGAGUGAUCGAAGCCCAUCUGAAAGAUUUUGAGUUAUGCUUUUACCAACUAUUACAGUAUCUGAGCUCAGUCGCGAGAGUAAAUCCCCGACUCGAUUGGCGUCAAAGAACUCGGCAUCUUGUACAAAUGUCCUUCGAAAUAAUUUUGAUCGGAGUCUUGAAAUUACUCUUUCUCCAACUAUUCUCAGAAUUAAUAUCCGUCCAUAAUUAGCUACAGCACCUAUUGAUAGUAUAAGCCCAAGAGCCCCGAAAAAUUGUUGAUUAUUAAGUUCAAAAAGUGUGUUUCCUUCUGAGUUUUUGGUUGCAAGGUCUAAUAUUUUACCGAUUGAAAAAGGAAUUGCCAUUGAUAUGGAUGAAGAUACUAAUAAAAAGAAAAAUGCCAAACUGAGC
antisense: GCUCAGUUUGGCAUUUUUCUUUUUAUUAGUAUCUUCAUCCAUAUCAAUGGCAAUUCCUUUUUCAAUCGGUAAAAUAUUAGACCUUGCAACCAAAAACUCAGAAGGAAACACACUUUUUGAACUUAAUAAUCAACAAUUUUUCGGGGCUCUUGGGCUUAUACUAUCAAUAGGUGCUGUAGCUAAUUAUGGACGGAUAUUAAUUCUGAGAAUAGUUGGAGAAAGAGUAAUUUCAAGACUCCGAUCAAAAUUAUUUCGAAGGACAUUUGUACAAGAUGCCGAGUUCUUUGACGCCAAUCGAGUCGGGGAUUUACUCUCGCGACUGAGCUCAGAUACUGUAAUAGUUGGUAAAAGCAUAACUCAAAAUCUUUCAGAUGGGCUUCGAUCACUCGUUAG
B3: GS3931 (nucleic acid)
sense: AUCAAUUUUUCAUUCUCCCUAAUAGAUUUGAUAUCCCGUUCUUUGAGAUAACUUAAUUCCUCUUUUAUGUCUUUUAGCUUUUUUUCUGCAGUCGCAAUUAGAGUCUCUUUUUCAGCAAUUUGAUCUUGAAGCUCAUUUUCUCUUUUUAAAAACUCUUCACGAUCAUCUUUUUCUAAUGCAAUUGGCGUAGAUGAGCGAUCUAAUAACGUUGAAGCUUCCGAUCUAGAUUCUACCUGCAGCCUAGAAGGAGUUGCAGGUCUUGGUGUUUUUAUUUUAGAAAGAUUAGCAGUAUCUAAAGGUGGUACCCAUUUUUCUUUAGGCACACUAUCUCCAGACCUCCACUGCUGAACUUCUGCAUCAAGUGUCUGUACAUAUUGUUCAAAUGUAGUAA
antisense: UUACUACAUUUGAACAAUAUGUACAGACACUUGAUGCAGAAGUUCAGCAGUGGAGGUCUGGAGAUAGUGUGCCUAAAGAAAAAUGGGUACCACCUUUAGAUACUGCUAAUCUUUCUAAAAUAAAAACACCAAGACCUGCAACUCCUUCUAGGCUGCAGGUAGAAUCUAGAUCGGAAGCUUCAACGUUAUUAGAUCGCUCAUCUACGCCAAUUGCAUUAGAAAAAGAUGAUCGUGAAGAGUUUUUAAAAAGAGAAAAUGAGCUUCAAGAUCAAAUUGCUGAAAAAGAGACUCUAAUUGCGACUGCAGAAAAAAAGCUAAAAGACAUAAAAGAGGAAUUAAGUUAUCUCAAAGAACGGGAUAUCAAAUCUAUUAGGGAGAAUGAAAAAUUGAU

Tested on: E. necator
Assay: Leaf disc assay, dry inoculum (settling tower), decrease in disease severity / hyphal growth (Example 2)
Details: decrease in disease severity (hyphal growth) relative to untreated control, value ± SE; for % decrease =/− SE TP1: time point 1 (untreated control hyphal growth ≥50%)

Molecule	% decrease =/− SE TP1	% decrease =/− SE TP2 (time point 2)
B1	31 ± 5%	17 ± 6%
B2	10 ± 4%	–
B3	14 ± 4%	–
